Laboratory results as given in US20210380667A1 (NOVOZYMES A S, published 2021).
Changes are numbered by the printed parent chain. Numbers in names are those of the source. Blank lines part the entries; values can stand above or below the binder they belong to.

Tests used:
[1] = molecular target: B. lentus protease variant having the amino acid sequence of SEQ ID NO: 2 with the substitutions S9E N43R N76D V205I Q206L Y209W S259D N261W L262E (Bacillus lentus), P29600; test: cell-based or functional assay
[2] = molecular target: T1, B. lentus protease having SEQ ID NO: 2 (Savinase) (Bacillus lentus, UniProt P29600 1-269); test: cell-based or functional assay
T1 sequence: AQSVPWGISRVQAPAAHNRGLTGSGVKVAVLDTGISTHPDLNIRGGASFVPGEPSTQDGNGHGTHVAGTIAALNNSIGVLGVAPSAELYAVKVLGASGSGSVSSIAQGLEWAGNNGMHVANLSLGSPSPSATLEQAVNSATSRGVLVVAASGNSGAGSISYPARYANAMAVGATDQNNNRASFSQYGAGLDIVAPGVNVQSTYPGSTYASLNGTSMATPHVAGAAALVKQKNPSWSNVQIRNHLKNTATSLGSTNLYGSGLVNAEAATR

pH value at which the released protease activity peaks [1]: 3.5 to 4 pH
B1: CI-2A variant (CI08) K21H+P25S+E26H+K30H+E33H (protein)
chain: HNLHTEWSHLVGHSVHEAKKVILQDKPEAQIIVLPVGTIVTMEYRIDRVRLFVDKLDNIAQVPRVG

pH value at which the released protease activity peaks [1]: 3 pH | pH value at which the released protease activity peaks [2]: ~3.5 pH
B2: CI-2A wildtype having the amino acid sequence of the mature protein of SEQ ID NO:1 (barley chymotrypsin inhibitor 2a) (other)
chain: B1 chain with H4K, S8P, H9E, H13K, H16E

pH value at which the released protease activity peaks [1]: 3.5 to 4 pH
B3: CI-2A variant (CI10) K30H+E33H+K43H+P44A+P52A, P01053 19-84 (protein)
chain: B1 chain with H4K, S8P, H9E, K26H, P27A, P35A
